# Laboratory results published in publication PMC9410875, “FOXL2 and FOXA1 cooperatively assemble on the TP53 promoter in alternative dimer configurations”.
# Residue numbers refer to the chain shown, from its start.
# T1: FOXL2-DBD (Homo sapiens, UniProt P58012 52-148)
# T1 sequence: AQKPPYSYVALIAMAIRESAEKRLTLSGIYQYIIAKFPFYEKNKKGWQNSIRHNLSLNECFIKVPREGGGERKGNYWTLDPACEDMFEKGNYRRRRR
# T2: FOXA1-DBD S177A (UniProt P55317 168-264, S177A)
# T2 sequence: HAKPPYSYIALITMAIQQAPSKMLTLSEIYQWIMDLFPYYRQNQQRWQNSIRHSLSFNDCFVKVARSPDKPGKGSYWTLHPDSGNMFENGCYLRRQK
# T3: FOXA1-DBD (UniProt P55317 168-264)
# T3 sequence: T2 sequence with A10S
# T4: FOXL2 full-length (UniProt P58012 1-376)
# T4 sequence: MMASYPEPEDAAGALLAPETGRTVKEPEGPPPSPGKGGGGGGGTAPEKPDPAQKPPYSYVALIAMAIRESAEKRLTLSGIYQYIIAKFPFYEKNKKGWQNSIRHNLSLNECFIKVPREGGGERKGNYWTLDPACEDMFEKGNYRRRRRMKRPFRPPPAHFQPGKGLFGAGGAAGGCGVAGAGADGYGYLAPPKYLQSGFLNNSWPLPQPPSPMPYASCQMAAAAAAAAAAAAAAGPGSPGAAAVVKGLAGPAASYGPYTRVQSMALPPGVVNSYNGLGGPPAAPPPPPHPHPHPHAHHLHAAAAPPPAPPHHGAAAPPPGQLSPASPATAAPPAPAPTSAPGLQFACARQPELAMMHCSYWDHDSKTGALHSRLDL
# B1: p53 mut2 16 bp (ITC) (dsDNA)
# DNA 1: AAATATTTATCCCTCA
# DNA 2: TGAGGGATAAATATTT
# B2: DBE2 DNA 16 bp (dsDNA)
# DNA 1: CAAAATGTAAACAAGT
# DNA 2: ACTTGTTTACATTTTG
# B3: p53-DNA 26 bp (S0) (dsDNA)
# DNA 1: TCAAAAAATATTTATTATCGAGCTCT
# DNA 2: AGAGCTCGATAATAAATATTTTTTGA
# B4: p53-DNA 16 bp (dsDNA)
# DNA 1: AAATATTTATTATCGA
# DNA 2: TCGATAATAAATATTT
# B5: TP53-DNA, 32P probe (dsDNA)
# DNA 1: CCCTCATTCAAAAAATATTTATTATCGAGCTCTTACT
# DNA 2: AGTAAGAGCTCGATAATAAATATTTTTTGAATGAGGG
# Assays:
# FOXL2-DBD [1] = target: T1, FOXL2-DBD; test: ITC; 1:1 one-site curve; biphasic pattern lost; ITC: 20 mM HEPES pH 7.5, 150 mM NaCl, 10 mM MgCl2, 298 K. EMSA: 2.5 uM DNA, 20 mM HEPES pH 7.5, 50 mM KCl, 10 mM MgCl2, 1 mM DTT, 10% glycerol, on ice 30 min; FOXA1 EMSA: 20 mM Tris-HCl pH 8.0, 0.1 mg/ml BSA, 50 uM ZnCl2, 100 mM KCl, 2 mM beta-mercaptoethanol, 10% glycerol (50 mM EDTA for Mg2+ depletion); conditions: protein: recombinant; tags: GST tag cleaved by TEV; blunt
# FOXL2-DBD [2] = target: T1, FOXL2-DBD; test: ITC; 1:1 stoichiometry; 10 mM MgCl2, 298 K; ITC: 20 mM HEPES pH 7.5, 150 mM NaCl, 10 mM MgCl2, 298 K. EMSA: 2.5 uM DNA, 20 mM HEPES pH 7.5, 50 mM KCl, 10 mM MgCl2, 1 mM DTT, 10% glycerol, on ice 30 min; FOXA1 EMSA: 20 mM Tris-HCl pH 8.0, 0.1 mg/ml BSA, 50 uM ZnCl2, 100 mM KCl, 2 mM beta-mercaptoethanol, 10% glycerol (50 mM EDTA for Mg2+ depletion); conditions: protein: recombinant; tags: GST tag cleaved by TEV; blunt
# FOXA1-DBD S177A = target: T2, FOXA1-DBD S177A; test: EMSA; little change vs wild type; ITC: 20 mM HEPES pH 7.5, 150 mM NaCl, 10 mM MgCl2, 298 K. EMSA: 2.5 uM DNA, 20 mM HEPES pH 7.5, 50 mM KCl, 10 mM MgCl2, 1 mM DTT, 10% glycerol, on ice 30 min; FOXA1 EMSA: 20 mM Tris-HCl pH 8.0, 0.1 mg/ml BSA, 50 uM ZnCl2, 100 mM KCl, 2 mM beta-mercaptoethanol, 10% glycerol (50 mM EDTA for Mg2+ depletion); conditions: protein: recombinant; label: 5' Cy3 on strand 1 (legends say Cy5); blunt
# FOXA1-DBD = target: T3, FOXA1-DBD; test: X-ray crystallography; 2:1, 2.1 A; Mg2+ at dimer interface; ITC: 20 mM HEPES pH 7.5, 150 mM NaCl, 10 mM MgCl2, 298 K. EMSA: 2.5 uM DNA, 20 mM HEPES pH 7.5, 50 mM KCl, 10 mM MgCl2, 1 mM DTT, 10% glycerol, on ice 30 min; FOXA1 EMSA: 20 mM Tris-HCl pH 8.0, 0.1 mg/ml BSA, 50 uM ZnCl2, 100 mM KCl, 2 mM beta-mercaptoethanol, 10% glycerol (50 mM EDTA for Mg2+ depletion); conditions: protein: recombinant; tags: GST tag cleaved by TEV; chain copies: 2; blunt
# FOXL2-DBD [3] = target: T1, FOXL2-DBD; test: ITC; 2:1 stoichiometry, biphasic; Kd values not in the text; ITC: 20 mM HEPES pH 7.5, 150 mM NaCl, 10 mM MgCl2, 298 K. EMSA: 2.5 uM DNA, 20 mM HEPES pH 7.5, 50 mM KCl, 10 mM MgCl2, 1 mM DTT, 10% glycerol, on ice 30 min; FOXA1 EMSA: 20 mM Tris-HCl pH 8.0, 0.1 mg/ml BSA, 50 uM ZnCl2, 100 mM KCl, 2 mM beta-mercaptoethanol, 10% glycerol (50 mM EDTA for Mg2+ depletion); conditions: protein: recombinant; tags: GST tag cleaved by TEV; blunt
# FOXL2 full-length = target: T4, FOXL2 full-length; test: EMSA; 1 or 10 ug protein; ITC: 20 mM HEPES pH 7.5, 150 mM NaCl, 10 mM MgCl2, 298 K. EMSA: 2.5 uM DNA, 20 mM HEPES pH 7.5, 50 mM KCl, 10 mM MgCl2, 1 mM DTT, 10% glycerol, on ice 30 min; FOXA1 EMSA: 20 mM Tris-HCl pH 8.0, 0.1 mg/ml BSA, 50 uM ZnCl2, 100 mM KCl, 2 mM beta-mercaptoethanol, 10% glycerol (50 mM EDTA for Mg2+ depletion); conditions: protein: recombinant; label: 32P
binder,measurement,setting,value
B1,binding result,FOXL2-DBD [1],binds
B2,Kd,FOXL2-DBD [2],790 ± 100 nM
B3,binding result,FOXA1-DBD S177A,binds
B4,binding result,FOXA1-DBD,binds
same,binding result,FOXL2-DBD [3],binds
B5,binding result,FOXL2 full-length,binds
